Experiment [1] deals with T1, human GFRAL (NCBI Ref. Sequence No. NP_997293.2) expressed on HEK293 cells with human RET51 (human, UniProt Q6UXV0 19-394).
T1 sequence (looked up): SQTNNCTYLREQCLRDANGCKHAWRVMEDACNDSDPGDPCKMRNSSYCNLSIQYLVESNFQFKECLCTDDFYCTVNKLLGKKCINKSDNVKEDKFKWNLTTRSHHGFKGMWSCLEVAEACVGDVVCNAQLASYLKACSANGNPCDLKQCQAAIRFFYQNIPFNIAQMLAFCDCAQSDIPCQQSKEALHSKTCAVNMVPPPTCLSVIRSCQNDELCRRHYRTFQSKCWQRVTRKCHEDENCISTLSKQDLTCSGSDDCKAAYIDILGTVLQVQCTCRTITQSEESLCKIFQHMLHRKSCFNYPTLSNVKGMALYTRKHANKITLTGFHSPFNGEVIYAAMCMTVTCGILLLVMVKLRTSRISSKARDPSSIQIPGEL
As to the kind of experiment: cell-based or functional assay.

In experiment [2] the target is T2, HIS-tagged human GFRAL ECD (human, UniProt Q6UXV0 20-338).
T2 construct: Produced in CHOK1 cell derivatives; also called Human GFRAL ECD (D1-D2-D3-ECD) Receptor; soluble human GFRAL extracellular domain
T2 sequence: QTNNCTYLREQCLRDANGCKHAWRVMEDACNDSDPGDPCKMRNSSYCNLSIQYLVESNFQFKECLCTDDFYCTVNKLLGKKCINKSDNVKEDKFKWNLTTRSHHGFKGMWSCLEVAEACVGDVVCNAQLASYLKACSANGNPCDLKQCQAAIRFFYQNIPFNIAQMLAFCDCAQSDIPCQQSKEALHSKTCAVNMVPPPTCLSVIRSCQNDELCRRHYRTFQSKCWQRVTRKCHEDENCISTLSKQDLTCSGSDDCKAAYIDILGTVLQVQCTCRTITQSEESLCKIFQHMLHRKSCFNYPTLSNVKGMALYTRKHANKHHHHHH
As to the kind of experiment: SPR, Biacore T200, 25 C; compound captured by immobilized anti-GDF15 antibody, GFRAL ECD as analyte; 1:1 fit. As to the method: To measure human GDF15 (des-ARN SEQ ID NO:1) or Compound 2 binding to human GFRAL ECD, a Biacore T200 Instrument is used to measure the binding kinetics of human GDF15 homodimer (des-ARN SEQ ID NO:1) and Compound 2 to the GFRAL ECD. Measurements are performed at 25° C. Samples are dissolved in HBS-EP+, pH 7.4 (GE Healthcare; 10 mM HEPES pH 7.4+150 mM NaCl+3 mM EDTA+0.05% surfactant P20). Goat […] GDF15 antibody (R&D) is immobilized on the flow cells of a CM5 sensor chip using amine coupling chemistry. GDF15 samples are prepared at 25 μg/ml by dilution into running buffer.
Human GFRAL ECD samples are prepared at final concentrations of 1000, 500, 250, 125, 62.5, 31.3, 15.6, 7.8, 3.9, 2.0 and 0 (blank) nM by dilution into running buffer. The SPR experiment includes the following steps: (1) capturing GDF15 samples on separate flow cells (Fc2, Fc3 and Fc4), (2) injecting 200 μl of human GFRAL ECD over all flow cells at […], (3) dissociating for 600 sec, (4) regenerating chip surfaces with a 10 μl (30 sec) injection of glycine, pH 1.5, at […], and (5) equilibrating chip surfaces with a 10 μl (30 sec) injection of HBS-EP+ at […]. Each concentration of human GFRAL ECD is injected in duplicate.
Data are processed using standard double-referencing and fit to a 1:1 binding model using Biacore T200 Evaluation Software to determine the association rate (kₒₙ, M⁻¹s⁻¹), dissociation rate (koff, s⁻¹) and maximum response (Rmax; response units (RU)). The equilibrium dissociation constant (KD) is calculated from the relationship KD=koff/kₒₙ (M).

By Kd is commonly meant the free concentration of one partner at which half of the binding sites on the other are occupied at equilibrium, for simple one-to-one binding. Low values mean a tighter complex, high ones a looser complex. The term koff denotes the first-order rate constant of dissociation. Higher therefore signals fast dissociation. The term kon denotes the second-order rate constant of association.

B1: Mature human GDF15 (homodimer of two compounds including SEQ ID NO: 1) (ligand)
chain: ARNGDHCPLGPGRCCRLHTVRASLEDLGWADWVLSPREVQVTMCIGACPSQFRAANMHAQIKTSLHRLKPDTVPAPCCVPASYNPMVLIQKTDTGVSLQTYDDLLAKDCHCI
Turning to B1, the “EC50 of ERK1/2 phosphorylation (AlphaLISA pERK1/2) in HEK293 cells expressing human GFRAL and human RET51” value in experiment [1] was found to be 27.9 pM.

B2: Compound 2 (homodimer of two compounds including SEQ ID NO: 2) (Fc fusion)
chain: EAAGGPSVFLFPPKPKDTLMISRTPEVTCVVVDVSQEDPEVQFNWYVDGVEVHNAKTKPREEQFNSTYRVVSVLTVLHQDWLNGKEYKCKVSNKGLPSSIEKTISKAKGQPREPQVYTLPPSQEEMTKNQVSLTCLVKGFYPSDIAVEWESNGQPENNYKTTPPVLDSDGSFQLESRLTVDKSRWQEGNVFSCSVMHEALHNHYTQKSLSLSLGGGGGAPAPAPAPAPAPAPAPAPAPGGGGGDHCPLGPGRCCRLHTVRASLEDLGWADWVLSPREVQVTMCIGACPSQFRAANMHAQIKTSLHRLKPDTVPAPCCVPASYNPMVLIQKTDTGVSLQTYDDLLAKDCHCI
notes: Homodimer linked by at least one interchain disulfide bond between the GDF15 portions; also called homodimer of the Fc-GDF15 Compound 1
In experiment [2], B2 yielded a Kd of 8.3 nM, a koff of 0.00871 s⁻¹ and a kon of 1.05e+06 M⁻¹ s⁻¹. In addition, the “EC50 of ERK1/2 phosphorylation (AlphaLISA pERK1/2) in HEK293 cells expressing human GFRAL and human RET51” value in experiment [1] stood at 86.2 pM.

Source of the values: patent US20190309033A1 (Eli Lilly, published 2019).
